Assay: label from the status in PepcDB records

MTSFQSTLDDDEDGIAEELAASQREISVAEFFEKNKHMLGFDSGARGLVTAVKEAVDNALDATEEAGILPDIYVEISEGRDYYTLIVEDNGPGITNAQIPKIFGKLLYGSRFHAREQSRGQQGIGISAAVLYSQLTSGKPVRIESRTQDSETANVYELIIDTDTNEPEISAETEVSAAKSDLRGTHGTRIEMALDANMRARGQLHDYIKHTAVVNPHARIELQEPGGELKSERAEEASLPAETDEILPHPHGVELGTLIKMLAETDSHSVSGFLQSEFTRVGSKTATGIIDAFRDEHFGREMRWRPPADADLEATVADAVANKDATHTAVFARTVADAVRDADSIAPAELGALVADAAADAQDDTGTSFGETVQANVVAAVRDALTSDRVADVLGPVDEATTVQKDDATVRGLAERIAAKFESGGDTDRVTRDTLDEYVFRAAENTAEYADATIGETARENVADALWARMATVPDDPPNTSALADDRDAASDLLAAMASVNVMAPPTSCLSPIEADQLEAGLRTEFDADFYAAATRDADVHGGDPFIVEAGIAYGGDIDSEGGVQLMRFANRVPLVYQRGACATTDVLGDIGWRNYNLSQPGGSGLPQGPAVIMVHVASTNVPFTSESKDAIANVPEIEAEIELAVREAARELKSFLQKRQSMRKRQQKQDVIMDILPTMAEKVGELTGRGGVDVSDSLARIMNNVLVERARSDDGQTVTLRVENHGTGSVDVDVTDIVSAEPDGVGDDASVVAMDDEYFVKWTPAVAGDDAAELTYSVDADADCELSVSGVADARLTVSEADT
protein production: failed

MGLDDLVGQWLLPGMALAAVGVFFCIKGYLLRRQMARDALTDALTVGELRRRVHALVLGKRQRVYSGAMFLVEVVHHPELSAMLGLEDNKLLLAMIAQRLQMQSDYFQVARHSSDSFMVWAPDLDPRSARDVAPEVLDALSQPYELRGQPLIVGFRLSGALYAQHGACFDELERSLHIAMLHLDESAGAAWNMFEPSMLEHQRHYQGLEHDLRVALVSSSMDQFEVCYQPVCDSVTGTIYGCEALLRWHHPVHGDVSPALVIELAERTGLIVPLGAWVLETACSRAITWPAAWRLHVNVSVRQMYADELPAQVALALAASRLSAQRLVLEITESLFIQQYERHVATLNGMRAKGVRVALDDFGAGYSSLTHLRRLPIDWVKLDRGFVAEIEFDAVSREVVSALMGMCRALGLAVVAEGVETPAQREILKALGCREMQGFLLGRPVSAERIRELGAAVS
protein production: failed

MTKVERLLINYKTLEEFKKFKEYGIQELSMLEELQDNIIENDSTSPFYGIYFGDKLVARMSLYQVNGKSNPYFDNRQDYLELWKLEVLPGYQNRGYGRALVEFAKSFKMPIRTNPRMKSAEFWNKMNFKTVKYDMARDKGEDPLIWHPDMDREMTPGESA
protein production: not failed

MSELFSNDNIFLNVNVNSQNEAIEKAGKALVDSGAVTDAYIQAMKDREQVVSTFMGNGLAIPHGTDEAKTNVIHSGLTLLQIPEGVDWDGEVVKVVVGIAGKDGEHLDLLSKIAITFSEEENVDRIVQAKSAEEIKQVFEEADA
protein production: failed

MASTGASRSLAASPRPPQGRSSRQDKYSVLLPTYNERENLPLIVWLLVKSFSESAINYEIIIIDDGSPDGTREVAEQLAEIYGPDRILLRPREKKLGLGTAYIHGIKHATGNYVIIMDADLSHHPKFIPEFIRKQKEGNFDIVSGTRYKGNGGVYGWDLKRKIISRGANFITQILLRPGASDLTGSFRLYRKEVLQKLIEKCVSKGYVFQMEMIVRARQMNYTIGEVPISFVDRVYGESKLGGNEIVSFLKGLLTLFATT
protein production: failed

MLYLKRILIVGLSFVVGLINIIGNNYTVFALEKNTLVHQNVMSMIQSQRGGLFDPIYTESLEDNWQGDYIYYGEDTDGSALKWQLLDSDNKDFSKNANSTMFLFSDKTIGTSFWYRENDYGFDYSNVKPGETPIYWQKGYEWDKSDLKTNMEDEMKNKFSSIENEGIIFSSKSSEDAQNVAVGLEKLGTTEMTASKWFPLSIQELTNKCYGFSSVPFNRNQAPLGLHTGDKSRVSSDDKNYLIRSYEEHWTKPMENGMRYHPVFVLNSNSVYGANCAGGLNYGNMYTVQSMRPAMNIDTSKVMLVKSHNQKEIIGIKAVNDSKTNEFKLTLLDDKQKLNIENIKTERDKITFDFEAIGNGKYLSVVVQDENNNVMYYGNIKDNLDKVNVGTMTIDLNQIGLNSKSFSSGEYKLSIFTEQLNFDKKTDYSSKFVDVEVVQNNVPPAVINKVPTIVAEDKVLTVGDTFDPLKDVTAYDNEDGIIKLTEANIAANDVNTNKEGTYNVTYKVTDKQGASSTKTITIDVIERIVIPENKPVDKTNNDTNSSNSSKVPQTGDINNIGVLAVTLMMSGSIVIGCNRKKSKANSLSEK
protein production: failed

MEQLVSMGFSSDLAAEALTATGGDSIQKATDWILSHRSSPQSTATLQPKLDRFLRLHPKALAPAMGDDSSKRPNPKTQIHVAADDSNKRHKLSSSSHRQHQPLSERMRPRTLDDVVGQDHLLSPSSLLRSAVESNRLPSIVFWGPPGTGKTSIAKSLINSSKDPSLYRFVSLSAVTSGVKDVRDAVESAKRLNLEGRKRTVLFMDEVHRFNKSQQDTFLPVIEDGSILFIGATTENPSFHLITPLLSRCRVLTLNPLKPNHVETLLRRAVDDSERGLPNSVEVDDSVIEFLANNCDGDARVALNALEISATMATTRAGTDAVVSIDDAKEALQCKHLAYDKAGEQHYNLISALHKSMRGGDANAAIYWLARMLEGGEEPLYIARRLIRFASEDIGLADPSALTQAVACYQASHFLGMPECNVILAQCTAYLALAPKSIAVYRAIGAAQKVVKDSVGQNEGVPLHLRNAPTKLMKELGYGKEYIYPPSDPSSAAGQTYLPPSLLHHKFLEWPEGASGDFQDQEHRL
protein production: failed

MNNRDLLLGIFVMIIWGLNFSVIKLGVSEIDPLLLTALRFSFAVIPAVFFVKRPQVKWRYLMGYGLVFAIGVWGMGSWSIQAGLSAGMASVLLQMNVVISLLVGYFVLKETVAPIKVVGSVVAILGLALSVSVTDGSVTTLGLVFILIAALSWSITSILVKKAGTKEIFAFSIWGMLFAPLPLFALAFLRGGPEQLQTLNSLANGSVIFSVLFQAYPVTLFGYWVWNRLLVKYPLSTVAPLTFLVPIFGLLGSAIFYQEQIGLVKALACLLIIVGLIIGLIKTEKLKAYLHQPKSAKQVV
protein production: failed

VHCLFVGAGSIAAEYAAELADSPLSLAGVCDLEEDRATALAAAHDCPAFTDLDTALSAVDAPLVVNLTNHAAHAPVTRTALEAGRHVYSQKPLALDEAAAAELLALAQDRNLALGCAPGTPDAPSQRRAGQMLADGRMGPVQLGYAHAHVGRV
protein production: failed

MTPETNETLKLIGSDKVQGTAVYGPDGEKIGSIERVMIEKVSGRVSYAVLSFGGFLGIGDDHYPLPWPALKYNVELGGYQVMVTVDQLERAPKYGPGSEWDWRGARKVDDYYGVALT
protein production: not failed

MTARNILSYSYEEYVEKITAFHGYPAPGVLIGGFMVDLAVKNLPEGILYDAICETRTCLPDAVQLLTPCTFGNGWLTVLPMGLFAVSLYDKFTGEGVRVFLDVEKMGPWQEIRNWFLKLKTKKEQDSERLFKEIREAGPDILELRNVKLKPGFLEKKHKGKIVLCPQCREAYPAQDGELCLSCQGGSPYL
protein production: not failed

MRTPRFLRAVHANRTTARDVSSLRLPLQPRRDRARPGAMRTGLQGSVGIQCQLQRQHCQRQVASHAHYCADRGAVHCDGIACLDRAIGFQQLQGALGLAQEMRARHDLLTRVAAFFDAVGLQTVECQLLWRPLFALALDQASEPQLQIRAPPLRIYARRFDRRCQCFFGVQQQGARQRSAAQIQHDTLRSEIGLRGARAFRCCEAAKGKQRGSADFQLAAEDETAELGGDLGRVAVRQQHQQVCIVLTQKCEDGNHAPLRRQPRIPLPLPNRQRLYVIGKLGMRERHCIRADQSDVLDILQGAKTLRNKIQVVSHGRGGLKSPSCESTMIGHPTPTPAQDSETQPSSQEHIPEKKPLPKEIGGRDGPEPTRYGDWEKNGRCIDF
protein production: failed

MRGEFLSRSADETREYARRFASGLKPGDTVCLTGPLGAGKTEFMRGITEAFGCEEQLSSPTFSLMNIYEGLLRGQPFELHHFDLYRLESEKELDSAGFDDYLSGPFLSVVEWGERFASLDRRYTRRVQLFIAGESQRKIVIT
protein production: failed

MAIQKGDFIKLNYTGRFEDGRIFDTTDEELAKKEEIFNPRGLYGGDVVIVGAGHTIEGLDEDLEGKEAGYSSTVTIPPEKAFGLSNSKLVETVSITKFQDRNVHPGLPVELEGKRGVVSRVIGRKVTVDFNSPLAGKTVSYEYTIEKLLEDDVEMIQGLLALYTGMRDMEVEITDGVAKIYVPTGLTFNQRWLMAKNRVVSELFKYAGLKEVQLIEKLTAEAEAPVPAEPEVEAEAEAEAEVEAEVKEETSESHE
protein production: failed

MHHQQRMAALGTDKELSDLLDFSAMFSPPVSSGKNGPTSLASGHFTGSNVEDRSSSGSWGNGGHPSPSRNYGDGTPYDHMTSRDLGSHDNLSPPFVNSRIQSKTERGSYSSYGRESNLQGCHQQSLLGGDMDMGNPGTLSPTKPGSQYYQYSSNNPRRRPLHSSAMEVQTKKVRKVPPGLPSSVYAPSASTADYNRDSPGYPSSKPATSTFPSSFFMQDGHHSSDPWSSSSGMNQPGYAGMLGNSSHIPQSSSYCSLHPHERLSYPSHSSADINSSLPPMSTFHRSGTNHYSTSSCTPPANGTDSIMANRGSGAAGSSQTGDALGKALASIYSPDHTNNSFSSNPSTPVGSPPSLSAGTAVWSRNGGQASSSPNYEGPLHSLQSRIEDRLERLDDAIHVLRNHAVGPSTAMPGGHGDMHGIIGPSHNGAMGGLGSGYGTGLLSANRHSLMVGTHREDGVALRGSHSLLPNQVPVPQLPVQSATSPDLNPPQDPYRGMPPGLQGQSVSSGSSEIKSDDEGDENLQDTKSSEDKKLDDDKKDIKSITSNNDDEDLTPEQKAEREKERRMANNARERLRVRDINEAFKELGRMVQLHLKSDKPQTKLLILHQAVAVILSLEQQVRERNLNPKAACLKRREEEKVSSEPPPLSLAGPHPGMGDASNHMGQM
protein production: failed

MANENVAFENKRQVYHYEPPIQKEEAIPKQYFAGFWIRFLAYLVDLVVIAALKGIIINPIFRVSGMGMDDSFFTFYWGMTTIIFLAYFILLTKFFGQTLGKMLFGLRVVKLDGGKLTWLTVLFREGAMRFVLKTIWPLYVVCAFTPNKQGIADFFESTSVVHTGYLELDEKWVNGAKK
protein production: failed

MAFSVAYDLIPNKLIKDIDEMNQWLHDKINRAVYLVGFATQQSDYEYKLYELFKALDELEERLKKQLFLFGNQLTESDLYLLATLERFDNIYFCLFKCSLKRIADYPALFRYHNQLRGMESLASTYQPVLTKEHYFMSTMHVLGLEHHHHHH
protein production: failed

MNMLVINGTPRKHGRTRIAASYIAALYHTDLIDLSEFVLPVFNGEAEQSELLKVQELKQRVTKADAIVLLSPEYHSGMSGALKNALDFLSSEQFKYKPVALLAVAGGGKGGINALNNMRTVMRGVYANVIPKQLVLDPVHIDVENATVAENIKESIKELVEELSMFAKAGNPGV
protein production: not failed

GVAVEVRGLPPAVPDELLTLYFENRRRSGGGPVLSWQRLGCGGVLTFREPADAERVLAQADHELHGAQLSLRPAPPRAPARLLLQGLPPGT
protein production: not failed

MHLETNMAGHSIPHFQNDGGHSVIEIGVKEFMCTGASVPFDHPHIFIDMGDDNEKVCSYCSTLYRYNPSLKAEQTNPPGCVFHVKAALEHHHHHH
protein production: not failed

MGMDLRVVPAEEWLNRGIDSSHDGEHDLGLMVTDFLETGGGSGGAGSWCSSDSDSGFPDPSYLSDKIQYLKYSMAQHETEVLSVVRTLMLTIKEKDLHSVKSGTCNASCIRFYLAKLLRLSGYDAAVCSARWQGGGKVPGGDNEYIDIILSDTEVGQDDRLIVDIDFRSHFEIARAVDSYQRIMESLPVVYVGTVARLNQFLQVMVDAAKFSLKQNSMPLPPWRSLNYLRSKWHSPHKRHLGPIDQQGPGMFSPGLHGQCAENLKRLQFALQVEQEAERFMKKKSGFSRRN
protein production: failed

From a protein production outcome set (Wang et al. 2014)
